The source of these data is PMC6528580, “Relative catalytic efficiencies and transcript levels of three D‐ and two L‐lactate dehydrogenases for optically pure D‐lactate production in Sporolactobacillus inulinus” (MicrobiologyOpen, 2018).

Substrate in this data set: CC(=O)C(=O)O
Put plainly: purified protein. The format is biochemical, Sporolactobacillus inulinus. Particulars: 0.4 mM NADH, pyruvate 0.05-40 mM.

B1: D-LDH3 (Sporolactobacillus inulinus CASD) (protein)
chain: MKIIMFSVRDDEEAAIREWEKKTGVQVDINRLELDAETAQLTKGYDGIVIQQRSHISNPAVYETLQKNGLRQLTSRTAGYDMIDLEQASERGLVVTNVPAYSPNSVAELALTQTMRLIRNLPLFDARGAEQDFRWAGLMAREIRSLTVGIIGAGRIGGTVARLFKALGATVIANDIVERVELKDIVTYVSKEELLQAADVVTLHVPLMDSTTQLIDADALALMKNDAVLINASRGPVVDTDALIAALQNKQIAGAALDTLNGEEHFFNQDLCGKELPSEQLKVLRTLPNVLITPHIGFYTNKAVQNMVEISLNDVLAILKTGTSEHQLNKVAVEN
notes: N-terminal His-tag (pET-28a) removed by enterokinase; E. coli BL21(DE3); homodimer hypothesised from identical DLDH744
Turning to B1, for the setting “pH 5.5, 30 °C”, the Km stood at 3.1 ± 0.08 mM, the Vmax turned out to be 9.2 µmol/min/mg, the catalytic constant (kcat) stood at 10.7 ± 0.2 s⁻¹ and the specificity constant (kcat/Km) was found to be 3500 ± 200 M⁻¹ s⁻¹.

B2: L-LDH2 (Sporolactobacillus inulinus CASD) (protein)
chain: MRKYAIIGLGHVGAAVAFQLVSRGIADELILIDTNEGLARAEQLDLQDMQGRIDTRTIIKINDYSELADTDILFITAGNILAYKEKQAQGNRWAEFEYTKDIVQDIAPKVKASGFHGVAIDTMNPCDAITQYFQENTGLSRQQVFATGTFLDTARMQKVVSDQFDCDPKNVSGYVYGEHGESQFTAWSTVRVNGLDITELAKERNLNLDDLEEAARRGGWEVYKGKGYTSWAISTCAVKLSQAVLSDAHAACICSCYSEKYGTYVGQPAIIGKNGIEEVLTLPLTTEEEAKFKHSADTIKEKFQTFEKQTN
notes: N-terminal His-tag (pET-28a) removed by enterokinase; E. coli BL21(DE3)
With B2, where the note is “pH 7.0, 40 °C”, the Michaelis-Menten constant (Km) was 6.8 ± 0.19 mM, the Vmax worked out at 1.9 µmol/min/mg, the kcat turned out to be 2.3 ± 0.1 s⁻¹ and the kcat/Km amounted to 300 ± 100 M⁻¹ s⁻¹.

B3: D-LDH1 (Sporolactobacillus inulinus CASD) (protein)
chain: MKLFMYGVQAHEKEIIRAWADAHAIDIETTADFLSEKTVDRAKDYDGICIQQPVPLGAAKLYATLKSYGIKQIATRTAGYDMIDLQEAEKNELIVTNVPAYSPYAVAELAVTQAMQLVRHVSQFQQRIAANDFRWDGLMSREIRSMTVGIVGTGRIGATAAQLFKGLGAKIIGFDQYPNDRLKDLIEYRSSLEDVLKEADIVSLHTPLFDSTRHMINARTLKLMKKSAYLINIARGALIDTEALIDALESGEIAGAALDTFENETVINKNLSGQSLNDPLLEKLIAMDQVLLTPHVGFFTETAIRNIVEGALNSVLEVLQTGTSKSRVKPAVTQ
notes: as for B2
With B3, for the setting “pH 6.0, 35 °C”, the Km worked out at 0.47 ± 0.04 mM, the Vmax was found to be 62.7 µmol/min/mg, the turnover number (kcat) was 75.8 ± 0.3 s⁻¹ and the kcat/Km was found to be 161000 ± 6000 M⁻¹ s⁻¹.

B4: D-LDH2 (Sporolactobacillus inulinus CASD) (protein)
chain: MAFKIIAYGVEPYEEHLYSELNKYGFELTLVNDLLTADNGDLAKGHDGVLLFVNCLADRANLEKFNDYGINYVFTRTAGFNHIDLQAAADLGIKVARVPAYSPNAIAELAVYLGTSLLRHTVYTTARTSKLNFTVTETNFSHEVHKIKVGIVGTGHIGCVEAELYKGLGAKLLGYDIFQSDFAKKLVEFKELDELLAESDIVSLHLPYFPGKNENFVGEDFIGKMKDGAILINTARGELVDEAAVAKAIKSGKLEGFGADVLTDEARFFGKDFSDGTEFPDATIKELIELYPKVLITPHVAAMTDVAVSNMISTSYDNFNAAIKGESLGRAEVELPEPAKK
notes: as for B2
Take B4: under “pH 7.5, 30 °C”, the Km came out at 1.4 ± 0.09 mM, the Vmax worked out at 38.1 µmol/min/mg, the kcat was 44.7 ± 0.3 s⁻¹ and the kcat/Km is 32000 ± 2000 M⁻¹ s⁻¹.

B5: L-LDH1 (Sporolactobacillus inulinus CASD) (protein)
chain: MSETVRRVGVVGIGNVGKAAASAVLHENIADELYISDIDSERAKGEAWDFADSIELTPSRTRVLEVPLEGLAVCDVILVAVTERSQIPTQSRLELLKGTAAITYDIVPKLRKAGFKGTYVIATNPCDIITYLFYKLSGLPKNHVIGTGTALDSMRLRRQLSQVIGDVDPRSINAFMIGEHGDSQIAAWSQATVGGQPLDQFEEDNVDEFGPIDRDQVEDAARHFGWEIHTRKGNTQFGIGNALAFFAKSILNDARVVTAASVIQNGEYGQNDLAIGVPIILGRNGVERIIKFRLSEKEQEGFNGSAELIKGYIKQTLEEHEETTAN
notes: as for B2
With B5, under “pH 7.0, 45 °C”, the Km was 4.1 ± 0.12 mM, the Vmax worked out at 5.2 µmol/min/mg, the kcat was 5.9 ± 0.1 s⁻¹ and the kcat/Km stood at 1400 ± 100 M⁻¹ s⁻¹.

For orientation: Km means the substrate concentration at which the rate is half of its maximum. The term Vmax denotes the top rate of the reaction or transport when substrate is in excess. As usually defined, the kcat is the number of substrate molecules converted per active site and unit of time at saturation. In general, kcat/Km refers to the turnover number divided by the Michaelis constant.
